Columns and labels:
[1] = target: FcγIIIa (V158) receptor (UniProt P08637 17-254); assay: cell-based or functional assay
[2] = target: FcγIIIa (F158) receptor (UniProt P08637 17-254); assay: cell-based or functional assay
[3] = target: T1, recombinant human soluble BAFF (human, UniProt Q9Y275 134-285); assay: MSD-SET with biotinylated recombinant human soluble BAFF, N=3
T1 construct: domain: soluble BAFF; also called human BAFF; soluble human BAFF trimer
Experimental: Binding affinity and stoichiometry of the exemplified bispecific antibody to human BAFF is measured by MSD-SET using purified recombinant human soluble BAFF (expressed from HEK293 cells). Purified recombinant BAFF is biotinylated using EZ-Link Sulfo-NHS-LC biotin reagent (Thermo Scientific, p/n. 21335).
Multi-array 96-well assay plates (Meso Scale Discovery, p/n. L15XA-3) are coated with 3.5 μg/mL of bispecific antibody and incubated overnight at 4° C. Following incubation, the plates are washed three times with PBS, then blocked using 3% Blocker A solution for 45 minutes at room temperature. The plates are then washed again with PBS. Exemplified bispecific antibody, starting at a concentration of 224 pM, is serially diluted (using 2-fold dilutions) in a V-bottom 96-well plate creating 12 different bispecific antibody concentrations. 7 pM of biotinylated recombinant BAFF is mixed with each dilution of exemplified bispecific antibody and then incubated at 37° C. for 36-48 hours (to reach equilibrium). Equilibrated samples are added to a well of the MSD multi-array 96-well assay plate previously coated with exemplified bispecific antibody; samples are mixed for 2.5 minutes, and then washed three times with PBS. […] 1× Read Buffer T (Meso Scale Discovery, p/n. R92TC-1) is added to each well and plates are read on a MSDSI6000 plate reader (Meso Scale Discovery, Rockville Md.). […]

[4] = target: murine BAFF (murine, UniProt Q9WU72 127-309, limits assumed); assay: not described
Chain of murine BAFF (Q9WU72 127-309 limits assumed): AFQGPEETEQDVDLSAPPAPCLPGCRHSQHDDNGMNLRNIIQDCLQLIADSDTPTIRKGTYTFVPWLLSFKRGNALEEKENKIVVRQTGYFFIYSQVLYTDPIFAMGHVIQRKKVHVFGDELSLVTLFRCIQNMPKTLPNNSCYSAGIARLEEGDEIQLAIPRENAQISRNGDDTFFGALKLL

Chain of FcγIIIa (F158) receptor (P08637 17-254): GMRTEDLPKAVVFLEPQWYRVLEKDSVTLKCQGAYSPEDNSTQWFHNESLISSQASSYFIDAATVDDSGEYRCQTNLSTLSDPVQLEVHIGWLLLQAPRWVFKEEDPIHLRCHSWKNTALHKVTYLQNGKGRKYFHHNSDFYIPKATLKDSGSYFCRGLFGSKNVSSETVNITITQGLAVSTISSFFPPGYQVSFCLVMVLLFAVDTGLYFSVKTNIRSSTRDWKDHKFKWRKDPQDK
Chain of FcγIIIa (V158) receptor (P08637 17-254 F176V): as the sequence (P08637 17-254) above, with F160V counted along it

EC50 of NFAT-luciferase reporter signal (ADCC), WIL2-S + Jurkat (V158) [1]: 4.61 pM
EC50 of NFAT-luciferase reporter signal (ADCC), WIL2-S + Jurkat (F158) [2]: 31.4 pM
Kd [3]: 0.3 pM
fold reduction in binding as compared to human BAFF [4]: ~250 fold
B1: exemplified bispecific antibody of Table 1 (anti-CD20 IgG1 mAb with anti-BAFF scFv linked at the N-terminus of each heavy chain) (bispecific antibody)
heavy: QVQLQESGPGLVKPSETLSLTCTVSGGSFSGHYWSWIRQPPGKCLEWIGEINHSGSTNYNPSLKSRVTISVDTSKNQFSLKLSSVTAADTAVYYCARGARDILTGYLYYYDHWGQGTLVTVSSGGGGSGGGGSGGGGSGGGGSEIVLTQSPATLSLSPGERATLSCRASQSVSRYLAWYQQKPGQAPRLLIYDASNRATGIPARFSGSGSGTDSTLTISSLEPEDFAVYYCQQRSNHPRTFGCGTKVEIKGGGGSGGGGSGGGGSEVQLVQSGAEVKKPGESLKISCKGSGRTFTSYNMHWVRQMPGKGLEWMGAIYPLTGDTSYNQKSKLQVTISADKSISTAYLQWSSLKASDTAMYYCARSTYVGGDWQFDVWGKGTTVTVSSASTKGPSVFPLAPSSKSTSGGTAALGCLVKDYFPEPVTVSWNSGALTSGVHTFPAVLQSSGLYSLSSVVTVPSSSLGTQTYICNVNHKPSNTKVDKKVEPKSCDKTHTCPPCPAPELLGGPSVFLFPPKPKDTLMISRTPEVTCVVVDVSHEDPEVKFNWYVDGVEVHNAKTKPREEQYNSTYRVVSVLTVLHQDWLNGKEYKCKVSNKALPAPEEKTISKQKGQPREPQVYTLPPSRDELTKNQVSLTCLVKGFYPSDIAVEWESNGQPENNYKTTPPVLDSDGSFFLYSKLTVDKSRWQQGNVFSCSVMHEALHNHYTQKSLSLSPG
light: EIVLTQSPGTLSLSPGERATLSCRASSSVPYIHWYQQKPGQAPRLLIYATSALASGIPDRFSGSGSGTDFTLTISRLEPEDFAVYYCQQWLSHPPTFGQGTKLEIKRTVAAPSVFIFPPSDEQLKSGTASVVCLLNNFYPREAKVQWKVDNALQSGNSQESVTEQDSKDSTYSLSSTLTLSKADYEKHKVYACEVTHQGLSSPVTKSFNRGEC
modifications: glycosylated at asparagine residue 566 of SEQ ID NO:1
notes: also called Exemplified Bispecific Ab; exemplified antibody

Source: patent publication US20160289342A1 (Eli Lilly, published 2016)
